The Kd is the concentration at which binding is half-saturated. What is called koff is the first-order rate constant of dissociation.

This is an account of results in article PMC4739761, “AMPylation matches BiP activity to client protein load in the endoplasmic reticulum” (eLife, 2015).

Where no end group is shown, it is not given here.

To fix the notation:
B1: lucifer yellow-labeled BiP substrate peptide (HTFPAVLGSC) (peptide)
peptide: HTFPAVLGSC
modifications: also: lucifer yellow label, position not given here
notes: well-characterized BiP substrate peptide; also called LY-labeled substrate peptide; fluorescently-labeled substrate peptide
B2: hamster BiP (27-654, with a His6-tag), unmodified (natural protein)
chain: not shown
notes: BiP (GRP78), Chinese hamster (Cricetulus griseus), residues 27-654; numbers count on the precursor with its signal peptide (mature BiP is 19-654); also called wildtype (wt) BiP; GRP78; source: E. coli M15, purified (Ni-NTA); unmodified BiP from mock in vitro AMPylation reactions without enzyme served as control in the functional assays; not shown: His6, N-terminal, kept
B3: hamster BiP (27-654, with a His6-tag) AMPylated in vitro to completion on Thr518 (natural protein)
chain: not shown
modifications: AMPylated threonine at 518 (single AMP)
notes: BiP (GRP78), Chinese hamster (Cricetulus griseus), residues 27-654; numbers count on the precursor with its signal peptide (mature BiP is 19-654); also called BiP-AMP; AMPylated BiP; source: E. coli M15, purified (Ni-NTA); not shown: His6, N-terminal, kept

Conditions in all cases: both partners purified
The target of assay [1] is B3. Description: fluorescence polarisation; steady state: 1 µM lucifer yellow-labeled peptide with BiP or BiP-AMP at 0-40 µM, 1 mM ADP, 24 hr at 30°C, FP buffer (37.5 mM HEPES-KOH pH 7.4, 125 mM KCl, 7 mM MgCl2, 0.5 mM CaCl2, 125 mM imidazole, 0.05% Triton X-100); read at room temperature.
Assay [2] deals with B2. The description is as above.
Assay [3] addresses B3. Description: fluorescence polarisation; competitive dissociation: pre-formed complex of BiP or BiP-AMP (40 µM) and LY-labeled peptide (1 µM) in 1 mM ADP, 400-fold excess (0.4 mM) of unlabeled peptide added at t = 0; single phase decay fit of the first 60 min. On the technique in general: Fluorescence polarisation rises when a labelled molecule tumbles more slowly, as on binding a larger partner.

Assay [4] has as its target B2. The assay is described as above.
The target of assay [5] is B1. The assay is described as above.

For B1, the values for the equilibrium dissociation constant (Kd) in assay [1] and in assay [2] were 11.5 µM and 16.7 µM, respectively. For the same molecule, the koff in assay [3] amounted to 0.00353 s⁻¹; in assay [4], 0.000617 s⁻¹.
Take HTFPAVL (also called unlabeled peptide) [unlabeled substrate peptide (HTFPAVL)]: the binding result in assay [3] and in assay [4] was “binds” throughout.
For B2, the “half-life (t1/2) of the complex” value in assay [5] is 19.3 min.
Same read-out and setting: to B3 belongs 3.3 min.
